The test system of this series is MS2 coat protein. The series can be described thus: apparent KD of MS2 coat protein; designed switch direction (-1 OFF switch, 1 ON switch): 1; higher = weaker reporter binding. The method in brief: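 The buffer was Tris-HCl pH 7.5 with KCl, MgCl2, BSA, DTT, tRNA and Tween-20. In it, SNAP-549-labelled MS2 coat protein was titrated in doubling steps from 0.7 or 1.5 nM to 3 µM over chip-bound RNA switches transcribed by stalled E. coli RNA polymerase on Illumina chips. Apparent KD is the per-design median over clusters of curve fits to normalised fluorescence.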

Setting [1] is: Eterna round: R95, input ligand: FMN 200 uM.
[2] abbreviates: Eterna round: R95, input ligand: microRNA oligo, concentration not stated.
Where [3] appears, read: Eterna round: R95, input ligand: none.
Setting [4] is: input ligand: microRNA oligo, concentration not stated.

The values below come from the supplement of paper PMC9170038.

Regarding “GGAGCCGGCACCGAGGAUAUUCAUAUUAAAACAUGAGGAUCACCCAUGUAGCUCGAAAGAGCUUGGGAGAAGGCGGAUCGGCUCG [Xeonanis - 29] (puzzle: Same State 2)”, the “apparent KD of MS2 coat protein” value under setting [1] came to 30.5 nM, the “apparent KD of MS2 coat protein” value under setting [2] is 1010 nM and the “apparent KD of MS2 coat protein” value under setting [3] was found to be 827 nM.
As to “GGAGCCGGCCUAGGAUAUUUCAUAAGAAAACAUGAGGAUCACCCAUGUAGGCCAGAAGGCCUUGGGAAGAAGGAGGUCGGCUCC [Loop Effect - G26] (Eterna round: R96, puzzle: Same State NG 2)”, the “apparent KD of MS2 coat protein” value is, setting by setting: (input ligand: FMN 200 uM) 11.2 nM; under setting [4], 19.7 nM; (input ligand: none) 35.1 nM.
As for “GGAGCCGGCCUAGGAUAUUUCAUAAUAUUACAUGAGGAUCACCCAUGUAGGCCAGAAGGCCUUGGGAAGAAGGAGGUCGGCUCC [Loop Effect - U26,U28,U29] (Eterna round: R96, puzzle: Same State NG 2)”, the “apparent KD of MS2 coat protein” value under setting [4] was found to be 30.7 nM.
“GGAGCCGGCCUAGGAUAUUUCAUUUAAAAACAUGAGGAUCACCCAUGUAGGCCAGAAGGCCUUGGGAAGAAGGAGGUCGGCUCC [Loop Effect - U24,U25] (Eterna round: R96, puzzle: Same State NG 2)”: the “apparent KD of MS2 coat protein” value was 11.2 nM (input ligand: FMN 200 uM), 22.7 nM under setting [4] and 44.2 nM (input ligand: none).
As for “GGAGCCGGUACUGAGGAUAUUCAUAUUAAAACAUGAGGAUCACCCAUGUAGGCCAGAAGGCCUUGGGAGAAGGCAGACCAGCUCG [Atgexeedri] (Eterna round: R96, puzzle: Same State 2)”, the “apparent KD of MS2 coat protein” value is, setting by setting: (input ligand: FMN 200 uM) 18 nM; under setting [4], 190 nM; (input ligand: none) 271 nM.
With “GGAGCCUGCACUGAGGAUAUUCAUAGUGUAACAUGAGGAUCACCCAUGUAGGCCCUGAGGCCUUGGGAGAAGGCAGUGCGGCUCG [JL-ss2-3.05 ViennaUCT mod] (puzzle: Same State 2)”, the “apparent KD of MS2 coat protein” value under setting [1] worked out at 27.9 nM, the “apparent KD of MS2 coat protein” value under setting [2] is 355 nM and the “apparent KD of MS2 coat protein” value under setting [3] stood at 447 nM.
Consider “GGAGGACAUGAGGAUCACCCAUGUAGAUGGGCGCUAGGAUAUGCGAGAGGGUAGAGAGAAGCAGAAGGAGUGGAAA [JR_SS1_Sub040] (puzzle: Same State 1)”, for which the “apparent KD of MS2 coat protein” value under setting [1] stood at 149 nM, the “apparent KD of MS2 coat protein” value under setting [2] was 197 nM and the “apparent KD of MS2 coat protein” value under setting [3] turned out to be 382 nM.
On to “GGAGGACAUGAGGAUCACCCAUGUGGAUGGGCGCUAGGAUAUGCGAGAGGAUGGAGAGAAGCAGAAGGAGUGGGUU [JR_SS1_Sub042] (puzzle: Same State 1)”, for which the “apparent KD of MS2 coat protein” value under setting [2] turned out to be 79.6 nM.
Take “GGAUAACAUGAGGAUCACCCAUGUCAACAAAGUCGAGGAUAUGGGCAAUUAUAAUUAGAACCAGAAGGCGAAUAGG [Mat - Same State 1 - Mod of UCT - D44] (puzzle: Same State 1)”: the “apparent KD of MS2 coat protein” value stood at 55.9 nM under setting [1], 126 nM under setting [2] and 191 nM under setting [3].
As to “GGAUGAUAGACAGGAUAUUGAUUGUAAUUAGGUCAAGAAGGGUCUUUGAUUUAAACGACCAGUUACAUGAGGAUCACCCAUGUU [JR_SSNG1_Sub028] (Eterna round: R96, puzzle: Same State NG 1)”, the “apparent KD of MS2 coat protein” value is, setting by setting: (input ligand: FMN 200 uM) 82.5 nM; under setting [4], 65.9 nM; (input ligand: none) 201 nM.
On the same counts, the results for “GGAUGAUUAACAGGAUAUCAUUUGUAAAUUGGUUGAGAAGGGUUAAUGAUUUACACGACCUGUUACAUGAGGAUCACCCAUGUU [SameState NG1 #2] (Eterna round: R96, puzzle: Same State NG 1)” are 41 nM, 33.8 nM and 47.2 nM.
On to “GGAUGAUUGACAGGAUAUCAUUUGUAAAUUCGAUGAGAAGGGUCGAUUACUUACACGACGUGUUACAUGAGGAUCACCCAUGUU [SameState NG1 #5] (Eterna round: R96, puzzle: Same State NG 1)”, for which the “apparent KD of MS2 coat protein” value (input ligand: FMN 200 uM) came to 53.7 nM, the “apparent KD of MS2 coat protein” value under setting [4] was determined as 116 nM and the “apparent KD of MS2 coat protein” value (input ligand: none) amounted to 148 nM.
